Results from publication PMC3471918 (PLoS ONE, 2012).
Blank lines part the entries; values can stand above or below the molecule they belong to.

Tests used:
Experiment in all cases: AUC; sedimentation velocity, 4°C, 40,000 rpm, 50 mM Tris pH 7.4, absorbance at 280 nm, c(s,ff0) distributions by SEDFIT corrected to 20,w; monomer, dimer and higher oligomers
[1] = molecular target: cysteine-free rat insulin degrading enzyme (all twelve cysteines converted to serines) (rat) (UniProt P35559)
[2] = molecular target: rat insulin degrading enzyme C904S (rat) (UniProt P35559)
[3] = molecular target: the molecule itself

fold decrease in dimer content against wild type IDE [1]: 2 fold
Molecule: cysteine-free rat insulin degrading enzyme (all twelve cysteines converted to serines) (from UniProt P35559 1-1019)

stoichiometry N [2]: 2
Molecule: rat insulin degrading enzyme C904S (from UniProt P35559 1-1019)

B1: rat insulin degrading enzyme (IDE), wild type (enzyme, UniProt P35559 1-1019, looked up)
chain: MNNPAIQRIEDHIVKSPEDKREYRGLELANGIKVLLISDPTTDKSSAALDVHIGSLSDPPNIPGLSHFCEHMLFLGTKKYPKENEYSQFLSEHAGSSNAFTSGEHTNYYFDVSHEHLEGALDRFAQFFLCPLFDASCKDREVNAVDSEHEKNVMNDAWRLFQLEKATGNPKHPFSKFGTGNKYTLETRPNQEGIDVREELLKFHSTYYSSNLMAICVLGRESLDDLTNLVVKLFSEVENKNVPLPEFPEHPFQEEHLKQLYKIVPIKDIRNLYVTFPIPDLQQYYKSNPGHYLGHLIGHEGPGSLLSELKSKGWVNTLVGGQKEGARGFMFFIINVDLTEEGLLHVEDIILHMFQYIQKLRAEGPQEWVFQECKDLNAVAFRFKDKERPRGYTSKIAGKLHYYPLNGVLTAEYLLEEFRPDLIDMVLDKLRPENVRVAIVSKSFEGKTDRTEQWYGTQYKQEAIPEDVIQKWQNADLNGKFKLPTKNEFIPTNFEILALEKDATPYPALIKDTAMSKLWFKQDDKFFLPKACLNFEFFSPFAYVDPLHCNMAYLYLELLKDSLNEYAYAAELAGLSYDLQNTIYGMYLSVKGYNDKQPILLKKITEKMATFEIDKKRFEIIKEAYMRSLNNFRAEQPHQHAMYYLRLLMTEVAWTKDELKEALDDVTLPRLKAFIPQLLSRLHIEALLHGNITKQAALGVMQMVEDTLIEHAHTKPLLPSQLVRYREVQLPDRGWFVYQRRNEVHNNCGIEIYYQTDMQSTSENMFLELFCQIISEPCFNTLRTKEQLGYIVFSGPRRANGIQGLRFIIQSEKPPHYLESRVEAFLITMEKAIEDMTEEAFQKHIQALAIRRLDKPKKLSAECAKYWGEIISQQYNYDRDNIEVAYLKTLSKDDIIKFYKEMLAVDAPRRHKVSVHVLAREMDSCPVVGEFPSQNDINLSEAPPLPQPEVIHNMTEFKRGLPLFPLVKPHINFMAAKL
notes: Insulin degrading enzyme, rat; EC 3.4.24.56; also called wild type IDE; native enzyme; source: Sf9 insect cells, purified (HIS-select Ni-NTA agarose)
stoichiometry N [3]: 2
